Results reported in patent publication US20030186281A1, “Modified tetracycline repressor protein compositions and methods of use” (priority 2001, published 2003).
Where a chain is given by its changes, count along the chain named. Names may count otherwise.

B1: TetRrevAF6/12: revTetR(BD) L14F E15E G96V K98E V99L L101P (protein)
chain: MSRLDKSKVINSAFELLNEVGIEGLTTRKLAQKLGVEQPTLYWHVKNKRALLDALAVEILARHHDYSLPAAGESWQSFLRNNAMSFRRALLRYRDVAELHPGTRPDEKQYDTVETQLRFMTENGFSLRDGLYAISAVSHFTLGAVLEQQEHTAALTDRPAAPDENLPPLLREALQIMDSDDGEQAFLHGLESLIRGFEVQLTALLQIV
modifications: Modified tetracycline repressor
notes: revTetR(BD) L14F E15E G96V K98E V99L L101P
B2: TetRrevAF2/16: revTetR(BD) E19V Y93C D95Y A97T K98N V99L L101L (protein)
chain: B1 chain with F14L, E19V, Y93C, D95Y, V96G, A97T, E98N, P101L
modifications: Modified tetracycline repressor
notes: revTetR(BD) E19V Y93C D95Y A97T K98N V99L L101L
B3: TetRrevAD2/13: revTetR(BD) E19D V20E E23K V57L I59N L60F A61A (protein)
chain: MSRLDKSKVINSALELLNDEGIKGLTTRKLAQKLGVEQPTLYWHVKNKRALLDALALENFARHHDYSLPAAGESWQSFLRNNAMSFRRALLRYRDGAKVHLGTRPDEKQYDTVETQLRFMTENGFSLRDGLYAISAVSHFTLGAVLEQQEHTAALTDRPAAPDENLPPLLREALQIMDSDDGEQAFLHGLESLIRGFEVQLTALLQIV
modifications: Modified tetracycline repressor
notes: revTetR(BD) E19D V20E E23K V57L I59N L60F A61A
B4: TetRrevAF7/1: revTetR(BD) Y93C G96R K98N (protein)
chain: B1 chain with F14L, Y93C, V96R, E98N, L99V, P101L
modifications: Modified tetracycline repressor
notes: revTetR(BD) Y93C G96R K98N
B5: TetRrevAF1/4: revTetR(BD) N18K D95V G96V A97V (protein)
chain: B1 chain with F14L, N18K, D95V, A97V, E98K, L99V, P101L
modifications: Modified tetracycline repressor
notes: revTetR(BD) N18K D95V G96V A97V
B6: TetRrevAD3/2: revTetR(BD) A56P E58H A61A H63Y (protein)
chain: B1 chain with F14L, A56P, E58H, H63Y, V96G, E98K, L99V, P101L
modifications: Modified tetracycline repressor
notes: revTetR(BD) A56P E58H A61A H63Y
B7: TetRrevAD3/7: revTetR(BD) L17M E19D L52L D53Y A54A A56E (protein)
chain: B3 chain with L17M, E20V, K23E, D53Y, A56E, L57V, N59I, F60L
modifications: Modified tetracycline repressor
notes: revTetR(BD) L17M E19D L52L D53Y A54A A56E
B8: TetRrevAD3/6: revTetR(BD) V20G A56P I59L R62R (protein)
chain: B3 chain with D19E, E20G, K23E, A56P, L57V, N59L, F60L
modifications: Modified tetracycline repressor
notes: revTetR(BD) V20G A56P I59L R62R
B9: TetRrevAF2/15: revTetR(BD) V20G I22N R49Q A50T (protein)
chain: B1 chain with F14L, V20G, I22N, R49Q, A50T, V96G, E98K, L99V, P101L
modifications: Modified tetracycline repressor
notes: revTetR(BD) V20G I22N R49Q A50T
B10: TetRrevAD3/9: revTetR(BD) E15Q L17L L55M I59R (protein)
chain: B1 chain with F14L, E15Q, L55M, I59R, V96G, E98K, L99V, P101L
modifications: Modified tetracycline repressor
notes: revTetR(BD) E15Q L17L L55M I59R
B11: TetRrevAD3/8: revTetR(BD) L16L A56A V57E E58L I59N L60A (protein)
chain: B3 chain with D19E, E20V, K23E, L57E, E58L, F60V
modifications: Modified tetracycline repressor
notes: revTetR(BD) L16L A56A V57E E58L I59N L60A
B12: TetRrevAD2/2: revTetR(BD) L14I G21R A56V (protein)
chain: B1 chain with F14I, G21R, A56V, V96G, E98K, L99V, P101L
modifications: Modified tetracycline repressor
notes: revTetR(BD) L14I G21R A56V
B13: TetRrevAtc4-11: revTetR(BD) L55L A56P R62S (protein)
chain: B1 chain with F14L, A56P, R62S, V96G, E98K, L99V, P101L
modifications: Modified tetracycline repressor
notes: revTetR(BD) L55L A56P R62S
B14: TetRrevAD3/5: revTetR(BD) L17L N18K E19V I22T 53Y A54S (protein)
chain: B1 chain with F14L, N18K, E19V, I22T, D53Y, A54S, V96G, E98K, L99V, P101L
modifications: Modified tetracycline repressor
notes: revTetR(BD) L17L N18K E19V I22T 53Y A54S
B15: TetRrevAF2/7: revTetR(BD) Y93C D95E A97T (protein)
chain: B1 chain with F14L, Y93C, D95E, V96G, A97T, E98K, L99V, P101L
modifications: Modified tetracycline repressor
notes: revTetR(BD) Y93C D95E A97T
B16: TetRrevAtc4-10: revTetR(BD) I59N L60F A61G (protein)
chain: B3 chain with D19E, E20V, K23E, L57V, A61G
modifications: Modified tetracycline repressor
notes: revTetR(BD) I59N L60F A61G
B17: TetRrevAF1/5: revTetR(BD) L14V G24G Y93D R94G D95G (protein)
chain: B1 chain with F14V, Y93D, R94G, D95G, V96G, E98K, L99V, P101L
modifications: Modified tetracycline repressor
notes: revTetR(BD) L14V G24G Y93D R94G D95G
B18: TetRrevAF1/3: revTetR(BD) G24G D95A G96R (protein)
chain: B1 chain with F14L, D95A, V96R, E98K, L99V, P101L
modifications: Modified tetracycline repressor
notes: revTetR(BD) G24G D95A G96R
B19: TetRrevAF3/5: revTetR(BD) V20F G21R R49S (protein)
chain: B1 chain with F14L, V20F, G21R, R49S, A50T, V96G, E98K, L99V, P101L
modifications: Modified tetracycline repressor
notes: revTetR(BD) V20F G21R R49S
B20: TetRrevAF2/14: revTetR(BD) L14L E15A L16L L17V N18N; V20V G96V (protein)
chain: B1 chain with F14L, E15A, L17V, E98K, L99V, P101L
modifications: Modified tetracycline repressor
notes: revTetR(BD) L14L E15A L16L L17V N18N; V20V G96V
B21: TetRrevAF7/2: revTetR(BD) L14V E15V E23D K48K G96L G102A (protein)
chain: B1 chain with F14V, E15V, E23D, V96L, E98K, L99V, P101L, G102A
modifications: Modified tetracycline repressor
notes: revTetR(BD) L14V E15V E23D K48K G96L G102A

test system: tet operator sequence; assay: β-galactosidase activity of a tetracycline-regulated promoter in transformed E. coli with revTetR, in the presence and absence of anhydrotetracycline (atc); type: cell-based, Escherichia coli; details: RevTetR isolate cultured in the absence of anhydrotetracycline (ATC)
Experimental: The relative activity of revTetR repressors was determined at 28° C. and 37° C. for each clone by measuring β-galactosidase activity of a tetracycline-regulated promoter in transformed Escherichia coli in the presence and absence of the tetracycline analog, anhydrotetracycline (atc). The relative β-galactosidase activity was measured in standard Miller units and is presented as the percent of maximal expression as measured in the absence of Tet repressor. […] With respect to each mutant, as well as the wild-type controls, FIG. 2 provides two horizontal bars; the upper horizontal bar represents the level of β-galactosidase activity in the absence of anhydrotetracycline (−atc) while the lower horizontal bar represents the level of β-galactosidase activity in the presence of anhydrotetracycline (+atc).
The pool of mutated Tet repressors was cloned into plasmid pWH1411 (Baumeister et al., 1992, Proteins: Struct. Funct. Genet. 14: 168-77), which carries a TetR(B) gene, to provide a TetR(BD) chimera that included, as the amino-terminal portion, amino acid residues 1 to 50 of the TetR(B) gene and, as the carboxyl-terminal portion, amino acid residues 51 to 208 of the TetR(D) gene. The resulting plasmid pool was screened in a genetic assay which positively selects for a functional interaction between a Tet repressor and its cognate operator using E. coli strain WH207(λWH25) (the construction of this strain is described in detail in Wissmann et al., (1991) Genetics 128: 225-32). In this E. coli strain, tet operators direct the expression of divergently arranged β-galactosidase (lacZ) and Lac repressor (lacI) genes and the lac regulatory region directs the expression of a galactokinase (galK) gene on plasmid pWH414. Binding of Tet repressors to tet operators turns off transcription of the lacI and lacZ genes. The absence of Lac repressor allows for expression of the galK gene, which enables the E. coli strain to use galactose as a sole carbon source, which serves as one marker. The lacZ^− phenotype serves as a second marker. Thus, bacteria containing Tet repressors which bind to tet operators, have a Gal^+, lacZ^− phenotype. Bacteria containing wild-type Tet repressors have a Gal^+, lacZ^− phenotype in the absence of tetracycline. Modified “reverse” Tet repressors (revTetR) were selected based upon a Gal^+, lacZ^− phenotype in the presence of tetracycline.
The ability of each revTetR clone to bind to its cognate tet operator sequence and regulate transcription in a prokaryotic organism, Escherichia coli, in the presence and absence of a tetracycline analog (anhydrotetracycline, atc) was determined (Table 3, FIG. 2). The relative ratios of non-repressed to repressed levels of transcription for the 15 clones range from about 1.4-fold to about 50-fold at 28° C. and from about 1.3-fold to 40-fold at 37° C. For example, clone 4b comprising an amino acid substitution of glutamic acid for glycine at position 96 (e.g., SEQ ID NO. 24) repressed transcription 19-fold at 37° C. but to a less extent at 28° C. (5.7-fold, Table 3). Furthermore, clones 14, 5a and 7 comprising the arginine for glycine substitution at position 96 and further comprising a substitution or substitutions of serine for threonine at position 103 and valine for glutamic acid at position 114; leucine for proline at position 159; or glutamine to histidine at position 188, respectively, have pronouncedly different activities.
wherein each underlined base was present in approximately 85% of the oligonucleotides, while the remaining approximately 15% of the oligonucleotides contained one of the other three, non-wild type bases at that position. Similar mutagenic, partially randomized oligonucleotides were prepared for mutagenesis of the coding regions for amino acids 14-25 and 93-102. It was predicted that, according to a binomial distribution, each oligonucleotide would contain three to four mutations. […]

Point of comparison: B3, “β-Galactosidase Activity, Cultured Without ATC” value 71.1255. Against it:
- B1 — higher, 82.6734
- B2 — higher, 90.6438
- B4 — higher, 89.3536
- B5 — higher, 81.2613
- B6 — lower, 60.3284
- B7 — higher, 73.4537
- B8 — higher, 93.0552
- B9 — higher, 82.5755
- B10 — lower, 60.2932
- B11 — lower, 65.0174
- B12 — higher, 94.968
- B13 — higher, 103.132
- B14 — higher, 89.8129
- B15 — lower, 70.3163
- B16 — lower, 69.401
- B17 — higher, 102.015
- B18 — lower, 59.773
- B19 — higher, 101.824
- B20 — higher, 90.5688
- B21 — lower, 58.8637

same assay, conditions: RevTetR isolate cultured in the presence of anhydrotetracycline (ATC)

Point of comparison: B12, “β-Galactosidase Activity, Cultured With ATC” value 5.2312. Against it:
- B1 — lower, 1.3259
- B2 — lower, 2.622
- B3 — lower, 1.3355
- B4 — lower, 1.3792
- B5 — higher, 13.459
- B6 — lower, 3.5891
- B7 — lower, 2.4531
- B8 — lower, 1.6494
- B9 — lower, 2.828
- B10 — lower, 4.2427
- B11 — lower, 1.9046
- B13 — higher, 17.479
- B14 — lower, 1.1481
- B15 — lower, 2.8977
- B16 — higher, 11.275
- B17 — lower, 1.1988
- B18 — lower, 1.2536
- B19 — lower, 4.696
- B20 — lower, 1.239
- B21 — lower, 3.7321
